For one substance, mean channel fluorescence and nonspecific background binding (percent) results are on record in patent US20030149244A1.

Assay [1] addresses FcεRI-bound human IgE (IgE loaded on CHO 3D10 cells expressing the FcεRI alpha chain) (human) (UniProt P01854). The assay can be described thus: FACS on IgE-loaded CHO 3D10 cells (FIG. 4), arithmetic/linear scale.
The target is the same in assay [2]. Kind of assay: FACS on IgE-loaded CHO 3D10 cells (FIG. 4); called nonspecific by the filing.

Sequence of FcεRI-bound human IgE (IgE loaded on CHO 3D10 cells expressing the FcεRI alpha chain) (human) (P01854 whole entry, chain 1 of 2): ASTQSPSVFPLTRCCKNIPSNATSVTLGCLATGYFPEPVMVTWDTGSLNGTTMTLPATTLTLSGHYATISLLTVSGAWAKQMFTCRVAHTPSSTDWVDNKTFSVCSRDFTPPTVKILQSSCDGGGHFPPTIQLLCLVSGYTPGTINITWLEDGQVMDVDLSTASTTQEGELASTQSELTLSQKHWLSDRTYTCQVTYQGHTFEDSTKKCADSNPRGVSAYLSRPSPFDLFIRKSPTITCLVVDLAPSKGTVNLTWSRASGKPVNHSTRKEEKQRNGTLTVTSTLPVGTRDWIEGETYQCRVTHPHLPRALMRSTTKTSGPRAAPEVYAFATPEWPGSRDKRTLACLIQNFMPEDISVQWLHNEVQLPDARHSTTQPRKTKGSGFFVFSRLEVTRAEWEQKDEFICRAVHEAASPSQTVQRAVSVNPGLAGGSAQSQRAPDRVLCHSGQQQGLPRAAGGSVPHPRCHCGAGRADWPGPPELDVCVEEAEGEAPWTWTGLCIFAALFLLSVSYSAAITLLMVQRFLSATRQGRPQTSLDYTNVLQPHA
Sequence of FcεRI-bound human IgE (IgE loaded on CHO 3D10 cells expressing the FcεRI alpha chain) (human) (P12319 26-257, chain 2 of 2, further chain): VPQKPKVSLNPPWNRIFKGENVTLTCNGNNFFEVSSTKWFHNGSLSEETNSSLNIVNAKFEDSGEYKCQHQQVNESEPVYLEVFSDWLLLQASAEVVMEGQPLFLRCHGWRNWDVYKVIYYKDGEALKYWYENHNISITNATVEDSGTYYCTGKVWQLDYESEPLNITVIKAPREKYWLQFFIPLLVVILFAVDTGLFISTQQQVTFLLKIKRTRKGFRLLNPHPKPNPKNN

Turning to MOPC21 (antibody), the mean channel fluorescence at 0.1 µg/ml in assay [1] is 7.3. The substance also gave a nonspecific background binding (percent) in assay [2] of 10%.
